How the values were obtained:
Assay in all cases: cell-based or functional assay
[1] = biological target: HIV-1 Env of isolate 92BR020 (pseudovirus) (HIV-1)
[2] = biological target: HIV-1 Env of isolate 94UG103 (pseudovirus) (HIV-1)
[3] = biological target: HIV-1 Env of isolate JR-CSF (pseudovirus) (HIV-1) (UniProt P20871)
[4] = biological target: HIV-1 Env of isolate MGRM-C-026 (pseudovirus) (HIV-1)
[5] = biological target: HIV-1 Env of isolate 92RW008 (pseudovirus) (HIV-1)
[6] = biological target: HIV-1 Env of isolate 92TH021 (pseudovirus) (HIV-1)
[7] = biological target: HIV-1 Env of isolate 92UG031 (pseudovirus) (HIV-1)
[8] = biological target: HIV-1 Env of isolate 92UG037 (pseudovirus) (HIV-1)
[9] = biological target: HIV-1 Env of isolate 92WR009 (pseudovirus) (HIV-1)
[10] = biological target: HIV-1 Env of isolate 92WR020 (pseudovirus) (HIV-1)
[11] = biological target: HIV-1 Env of isolate 92WR021 (pseudovirus) (HIV-1)
[12] = biological target: HIV-1 Env of isolate 92WR024 (pseudovirus) (HIV-1)
[13] = biological target: HIV-1 Env of isolate 92WR026 (pseudovirus) (HIV-1)
[14] = biological target: HIV-1 Env of isolate 93UG077 (pseudovirus) (HIV-1)
[15] = biological target: HIV-1 Env of isolate 93WR029 (pseudovirus) (HIV-1)
[16] = biological target: HIV-1 Env of isolate 94KE105 (pseudovirus) (HIV-1)
[17] = biological target: HIV-1 Env of isolate CMU02 (pseudovirus) (HIV-1)
[18] = biological target: HIV-1 Env of isolate MGRM-A-001 (pseudovirus) (HIV-1)
[19] = biological target: HIV-1 Env of isolate MGRM-A-002 (pseudovirus) (HIV-1)
[20] = biological target: HIV-1 Env of isolate MGRM-A-003 (pseudovirus) (HIV-1)
[21] = biological target: HIV-1 Env of isolate MGRM-A-004 (pseudovirus) (HIV-1)
[22] = biological target: HIV-1 Env of isolate MGRM-A-005 (pseudovirus) (HIV-1)
[23] = biological target: HIV-1 Env of isolate MGRM-A-006 (pseudovirus) (HIV-1)
[24] = biological target: HIV-1 Env of isolate MGRM-A-007 (pseudovirus) (HIV-1)
[25] = biological target: HIV-1 Env of isolate MGRM-A-008 (pseudovirus) (HIV-1)
[26] = biological target: HIV-1 Env of isolate MGRM-A-009 (pseudovirus) (HIV-1)
[27] = biological target: HIV-1 Env of isolate MGRM-A-010 (pseudovirus) (HIV-1)
[28] = biological target: HIV-1 Env of isolate MGRM-A-011 (pseudovirus) (HIV-1)
[29] = biological target: HIV-1 Env of isolate MGRM-A-012 (pseudovirus) (HIV-1)
[30] = biological target: HIV-1 Env of isolate MGRM-A-013 (pseudovirus) (HIV-1)
[31] = biological target: HIV-1 Env of isolate MGRM-A-014 (pseudovirus) (HIV-1)
[32] = biological target: HIV-1 Env of isolate MGRM-AE-001 (pseudovirus) (HIV-1)
[33] = biological target: HIV-1 Env of isolate MGRM-AE-002 (pseudovirus) (HIV-1)
[34] = biological target: HIV-1 Env of isolate MGRM-AE-003 (pseudovirus) (HIV-1)
[35] = biological target: HIV-1 Env of isolate VLGCA1 (pseudovirus) (HIV-1)

4873_E03 (PGT-121) (antibody) showed a Primary Neutralization Index (B cell culture supernatant) [1] of 3.6, a Primary Neutralization Index (B cell culture supernatant) [2] of 0.8 and a Primary Neutralization Index (B cell culture supernatant) [3] of 2.2. For the same substance, the Primary Neutralization Index (B cell culture supernatant) [4] was 371.
Work on PGT-121 (4838_L06; 4873_E03) (antibody) yielded an IC50 (µg/mL), pseudovirus neutralization [5] of 0.003 µg/mL, an IC50 (µg/mL), pseudovirus neutralization [6] greater than 50 µg/mL and an IC50 (µg/mL), pseudovirus neutralization [7] greater than 50 µg/mL. It also gave an IC50 (µg/mL), pseudovirus neutralization [8] of 0.031 µg/mL, an IC50 (µg/mL), pseudovirus neutralization [9] of 1.74 µg/mL and an IC50 (µg/mL), pseudovirus neutralization [10] of 0.004 µg/mL. For the same substance, the IC50 (µg/mL), pseudovirus neutralization [11] was 0.009 µg/mL, the IC50 (µg/mL), pseudovirus neutralization [12] was greater than 50 µg/mL and the IC50 (µg/mL), pseudovirus neutralization [13] was 0.014 µg/mL. It also gave an IC50 (µg/mL), pseudovirus neutralization [14] of 0.019 µg/mL, an IC50 (µg/mL), pseudovirus neutralization [15] greater than 50 µg/mL and an IC50 (µg/mL), pseudovirus neutralization [16] of 0.029 µg/mL. It also gave an IC50 (µg/mL), pseudovirus neutralization [2] of 2.52 µg/mL, an IC50 (µg/mL), pseudovirus neutralization [17] greater than 50 µg/mL and an IC50 (µg/mL), pseudovirus neutralization [18] greater than 50 µg/mL. For the same substance, the IC50 (µg/mL), pseudovirus neutralization [19] was 0.013 µg/mL, the IC50 (µg/mL), pseudovirus neutralization [20] was 0.435 µg/mL and the IC50 (µg/mL), pseudovirus neutralization [21] was greater than 50 µg/mL. The IC50 (µg/mL), pseudovirus neutralization [22] was greater than 50 µg/mL, the IC50 (µg/mL), pseudovirus neutralization [23] was 0.396 µg/mL and the IC50 (µg/mL), pseudovirus neutralization [24] was greater than 50 µg/mL. The IC50 (µg/mL), pseudovirus neutralization [25] was greater than 50 µg/mL, the IC50 (µg/mL), pseudovirus neutralization [26] was 0.006 µg/mL and the IC50 (µg/mL), pseudovirus neutralization [27] was 2.44 µg/mL. The IC50 (µg/mL), pseudovirus neutralization [28] was greater than 50 µg/mL, the IC50 (µg/mL), pseudovirus neutralization [29] was 0.092 µg/mL and the IC50 (µg/mL), pseudovirus neutralization [30] was 0.387 µg/mL. It also gave an IC50 (µg/mL), pseudovirus neutralization [31] of 0.003 µg/mL, an IC50 (µg/mL), pseudovirus neutralization [32] greater than 50 µg/mL and an IC50 (µg/mL), pseudovirus neutralization [33] greater than 50 µg/mL. For the same substance, the IC50 (µg/mL), pseudovirus neutralization [34] was greater than 50 µg/mL and the IC50 (µg/mL), pseudovirus neutralization [35] was greater than 50 µg/mL.
